# Test results: publication PMC6610143 (Nature Communications, 2019)
# No end group written: not given here.
# T1: biotin-labeled HA peptide (HA epitope peptide (influenza A virus …, also: biotin label, position not given here))
# T1 chain: YPYDVPDYA
# T2: mitoNEET (Mito) fused to mCherry and 1 × HA (synthetic HA epitope tag (influenza A …, UniProt P03437))
# T2 chain: YPYDVPDYA
# T3: mitoNEET (Mito) fused to mCherry and the spaghetti monster HA tag (synthetic HA epitope tag (influenza A …))
# T3 construct: also called Mito-mCh-smHA; smHA-tagged Mito; source: U2OS, transfected, in living cells; not shown: mCherry, internal (between Mito and smHA), kept
# T3 chain: YPYDVPDYA
# B1: purified recombinant HA frankenbody fused to GFP (from pET23b-FB-GFP) (scFv, V domains shown)
# VH: EVKLVESGGGLVKPGGSLKLSCAASGFTFSSYGMSWVRQTPEKRLEWVATISRGGSYTYYPDSVKGRFTISRDNAKNTLYLQMSSLRSEDTAIYYCARRETYDEKGFAYWGQGTTLTVSS
# VL: DIVLTQSPASLTVSLGQRATISCKSSQSLLNSGNQKNYLTWYQQKPGQPPKLLIYWASTRESGIPARFSGSGSGTDFTLNIHPVEEEDAATYYCQNDNSHPLTFGAGTKLEI
# notes: also called purified FB-GFP; purified frankenbody; source: E. coli BL21 (DE3) pLysS, purified (HisTrap HP, Superdex 200)
# B2: HA frankenbody fused to mEGFP (χ15F11^HA) (scFv, V domains shown)
# VH: B1 VH
# VL: B1 VL
# notes: also called FB-GFP; FB
# Experiments:
# [1] = target: T1, biotin-labeled HA peptide; assay: SPR; details: both partners purified
# [2] = target: T2, mitoNEET (Mito) fused to mCherry and 1 …; details: partners not purified
# [3] = target: T3, mitoNEET (Mito) fused to mCherry and …; assay: co-localisation of the fluorescent scFv with its tagged target in living cells; details: partners not purified
Binder,Kd [1] [nM],Mito/Bg (mitochondria to background fluorescent intensity ratio) [2],Mito/Bg (mitochondria to background fluorescent intensity ratio) [3]
B1,14.7 ± 7.4,,
B2,,3.5,16.6
